Variants at the floor of the assay were thinned out.
B1: TPR 5TU (parent)
chain: GGAUCUUCUCGAUCUAACAAAAAAGACAAAUCUGCCACAAAGCUUGAGAGCAUCUUCGGAUGCAGAGGCGGCAGCCUUCGGUGGCGCGAUAGCGCCAACGUUCUCAACUAUGACACGCAAAACGCGUGCUCCGUUGAAUGGAGUUUAUCAUG

Variants of: B1
Assay: polymerase ribozyme fitness, log enrichment relative to wild type (log ratio); higher = more active; in vitro selection for triplet polymerase activity
Method in brief: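 For each subunit of a heterodimeric triplet polymerase ribozyme, a mutant library was built by PCR and transcribed, then taken through a single in vitro selection round in triplicate. Selection involved annealing to a biotinylated primer, the partner subunit and triplets, incubation frozen at −7 °C, gel excision of extended constructs, capture on streptavidin beads and RT-PCR. Genotypes were retained after Illumina sequencing of inputs and outputs only with ≥10 input reads and ≥1 read in each output. Fitness is defined as the logarithm of a genotype's enrichment relative to wild-type enrichment, using inverse-variance-weighted averages across replicates, with the logarithm taken to base 2.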

Variant	polymerase ribozyme fitness (log ratio)
A73C C96G C118U G143U	≤ -4.2
C72U C93G A106G A121U	-2.98
C72A	-3.87
C72G	-3.79
C72U	-0.00972
A73C A107G	≤ -4.2
C76G C96G C99G G140U U148G	≤ -4.2
C72G G81U C87A C95U U104A	≤ -4.2
A73G C95U	-0.166
C76G A91C	≤ -4.2
G71U G86U C125A A138G	-3.99
C75G A142U	-3.7
C76A U82G C96U	-0.697
G74A A89C	≤ -4.2
C75G C76G G81U C95G	≤ -4.2
C76A C87U A142G	-1.46
A73G C93A U146C	-2.15
C76A A91G	-3.83
C76A A91U	≤ -4.2
C76A C96A G128C	≤ -4.2
C75A C76U G86U A106U G126A U148C C149A	≤ -4.2
A73G C95U A122U C125U U127G A138G	≤ -4.2
C75U C79A	≤ -4.2
C75U G128A	-3.95

Variant	polymerase ribozyme fitness (log ratio)
C75U G128U	-3.28
C76A A122G	-0.466
C76A A122U	0.592
A73U G83C G143C	≤ -4.2
C76A C118A	-0.944
C75U G94C A142C	-2.58
A73G C87U	-1.55
A73G C87A	-4.18
A73U G86U	-4.19
C76A C96U G140U	-3.67
G74A A106G A122U	≤ -4.2
A73U C95A U104G	-4.05
C76A G83C A137G	-3.62
A73U C105G	-3.79
A73G C93U A110U	≤ -4.2
A73G U104C	-0.284
C75U U134A	-1.13
A73G C85U G88A A119U U134A G140C	≤ -4.2
G74A U77G	≤ -4.2
C72G C108U A137C	≤ -4.2
C76G A91U A106G U135A	≤ -4.2
G74A U77G G83A	≤ -4.2
C75G A89U C93G U104G A147C	≤ -4.2
C72U G92U U135A G143A	-3.54

Variant	polymerase ribozyme fitness (log ratio)
C76A C125G U144G	-2.22
C76A C85A	-1.96
C76A C85U	-0.443
C72U A122G	-0.726
G74A G80A C85A G92A C125A G136C A138G	≤ -4.2
A73G C87G U101G U139C	≤ -4.2
A73G A97G	0.222
C75A G83A A98U	-4.16
C76A C131G	-3.98
C76A	-0.118
C72U G152A	-2.42
C72U C87U C105A	-3.79
C75G C85U	-3.58
C76A A97G	-1.4
C76A A138U	-4.05
A73G U134G	-2.2
A73G A107U	-4.1
C72G A91C	≤ -4.2
C75G C96U A120C	≤ -4.2
G74A U148A	≤ -4.2
C75G C85G A147U	≤ -4.2
A73U C79U G88A A119G G124U C149A	≤ -4.2
G74C C76A C87U C114U C116U	≤ -4.2
A73G U148A	-3.81

Variant	polymerase ribozyme fitness (log ratio)
A73G U148C	-2.55
C76A U77G C95U G100U	-4.15
C76A G94A	-0.598
A73C A91G C116U	≤ -4.2
C76A U104A C125A A142C U144A	≤ -4.2
C72U G124U A142G	-2
C76A C99A	-4.05
C76A C85U U145C	-0.371
C76A C95U A142G	-1.94
A73U C93U G136A	-1.59
C76G G84U U145C	≤ -4.2
C75G G81U G84C A137U U146C	≤ -4.2
A73G G86A	-2.14
A73C A142U	≤ -4.2
C76A C85U G140C	-3.97
A73G C76A G88C C105G C108G C114U G136U	-3.91
A73U C96A U109A C116U	-3.64
A73U G133U A147C	≤ -4.2
C75G G84A	-3.93
G71U G94C A110G	≤ -4.2
C72G G83U G124U G128U G133A U148A	≤ -4.2
G74C U82C	-4.05
C75U G92C C132A	≤ -4.2
A73U C85A	-2.44

Variant	polymerase ribozyme fitness (log ratio)
A73G C125G	-0.161
A73U C103G	≤ -4.2
C72U G86C C105A C114U G140U	≤ -4.2
C76A G83A	-2.85
C75A C79U G94C	≤ -4.2
A73C C87G G141C	≤ -4.2
C76G G94C	≤ -4.2
C75U G80C A107U	≤ -4.2
C75A C95U A98U C103U U145G U146G	≤ -4.2
C72U C95U C96U U146A	-2.06
C76G U127C A150U	≤ -4.2
G74A A89C G94U U109G G117U	≤ -4.2
C72U A147U	0.651
C72U A147C	-1.72
C75G G92C C123A	≤ -4.2
A73U G94A G152C	≤ -4.2
C76A C95U	0.252
C76A A119U U135C C149G	≤ -4.2
C75G G86C C87U	≤ -4.2
C72U G86A C95A A97G A98U U104A A122U	≤ -4.2
A73U U90G G117U G133U	≤ -4.2
C75U U90C A91U C93G G94U A98C	≤ -4.2
C76A A142G U146A	-1.52
C75G G81A G92U C125G	≤ -4.2

Variant	polymerase ribozyme fitness (log ratio)
C76G G84U C116A	≤ -4.2
C76G G92U A121G G143U	≤ -4.2
A73G C118G C132G	≤ -4.2
C76G G84A C118A G141C	≤ -4.2
A73G C87G U146G	≤ -4.2
C76A C123U U134A	-1.5
C75U A122U	-0.205
C76A G84A	-0.957
G74A U145A	-3.36
C75U C93G A121U C123U	-2.27
C75U G80C A91G A97U A122G	≤ -4.2
C72U U90C C93A U104A U127A	≤ -4.2
C75U A121G	-0.596
A73U G83A	-1.97
G74C C118U	-4.02
C76A C79U C125U G140U	≤ -4.2
C72U C96A C105U C132U	-1.29
C72U C96G U127C C131U G140U U151A	≤ -4.2
C76G A98G A113U U151G	≤ -4.2
A73U C75U C118G	≤ -4.2
C72A U78G C85U A97U G140C	≤ -4.2
C76G A115G A121U	≤ -4.2
A73G C114U	-2.66
C72A U77A G88C C93G U111G A137U U139G	≤ -4.2

Variant	polymerase ribozyme fitness (log ratio)
C72U C87A A98U A138C	≤ -4.2
C76G G86A	≤ -4.2
C76A U78C C103G	≤ -4.2
A73C A121U G133U	≤ -4.2
A73U G84A G92A A122C U134A	≤ -4.2
A73U G100U U104A G126C	≤ -4.2
C75G C118U	-3.87
C75U U144C	-0.607
C72U G128U	-3.1
C75G G94C	-3.53
C75G G94A	-4.08
A73G G126C	0.529
A73G G126U	-0.214
G74U A97U	-4.18
C76A U102G	≤ -4.2
C75U A89C C95U	-0.65
G74A A91U G117U G141U	≤ -4.2
G74C C105U A107G	≤ -4.2
C72U C93G U130C G133C	≤ -4.2
C75U A137C	-3.47
C75U G83A C105G G128U U134A A138U G141U	≤ -4.2
C72U C87U U101G G124C	-1.6
C72U C76A G84A C87U A91G A106G C125A	≤ -4.2
